{
  "source": "the DeepSol protein solubility set",
  "data": [
    {"assay": "soluble on expression in E. coli; label from the status in PepcDB or PDB records", "values": [
      {"sequence": "MSLNKLLSQLASVEILTPKIDDTLWFFKDILGLHEVGRKDRSVYLRGWEDWYAYSLKVTESDTAGVKEIVWRTYSEKDLIDSINIVNSNGLGLGWDEGEPDMGVGKGYKFILPSGQIGKLVWEMKIWRASGELRSGYKARPMKKPTKGVQAKDLSHIFIFAYNDESLAKTVELLKRLTFKVNEILKEGDKRIAYWMAVNGTAHDLAVSLDPSGVPARLNHVTFNVDYADDILKAADFYTDYGLEIVGGPLRHGITDSHSLYVKEPGGNVIELLHGGYLNVVPDWEPIVWDTKEDENRWLYYWGHVKEAFWHGEGHHHHHH", "soluble on expression in E. coli": "not soluble"},
      {"sequence": "MSLNLIFKKKSYSFKLSTKVENSKTTYLTKLGWIIKLTSNDKKIGFGEVSPLLEEDLKKCAKQLNMIPKNVEAFNLSEQINIFHPCIQSAINSALAEINGKIIFKENYTFDEIDKTAILLNSENVITELNEIKQRQSIIGKSVTIKWKVALRDNHEEEANLEEILSQIGNNIKLRIDANGSWSRKIANRWADILKDNKNIDWLEQPLCVEDIEGMKELNKKIPIALDESLLKFPTLIDEWKGWQIRRPSQENNPVKLLRELENKKALISISTSFETGIGKRWLYHLSSLQLQGPTPKVPGLGMNKFPNSFLFLNEAKKIWDQLEGHHHHHH", "soluble on expression in E. coli": "not soluble"},
      {"sequence": "MSLNPRIDYLKSLSTLAAEIYPDIRGVKKLRYNARFCLWGILMPDTLARIQDLLNQPSFHPVRQHYPRTLEKPLKPYVCVKWPPQERAQRLIEHFAFLEKRHAQLLPLIYRHQGWSLFQHELFSIQLCHGPEREGSLALVLLSQDHQPLFTLAFNISGRNKPVIHIGALQGPGPNVENRQEIIRQLTHQLHGLRPKALIMEVLLILARYWCVEKVYGVTNEGHVYQALRYIGSKRSSVRFQYSELWQEMGGEAINPYWHSLPTHPPRKAPLSLSKTKRRLYTKRYAWLTELEQSIQANLQPWDNEIHHEGHHHHHH", "soluble on expression in E. coli": "soluble"},
      {"sequence": "MSLNQPLLSVNNLTHLYAPGKGFSDVSFDLWPGEVLGIVGESGSGKTTLLKSISARLTPQQGEIHYENRSLYAMSEADRRRLLRTEWGVVHQHPLDGLRRQVSAGGNIGERLMATGARHYGDIRATAQKWLEEVEIPANRIDDLPTTFSGGMQQRLQIARNLVTHPKLVFMDEPTGGLDVSVQARLLDLLRGLVVELNLAVVIVTHDLGVARLLADRLLVMKQGQVVESGLTDRVLDDPHHPYTQLLVSSVLEGHHHHHH", "soluble on expression in E. coli": "soluble"},
      {"sequence": "MSLNREAQGSQEGVRIRKARAQDIPIVMEINLESLPENYWYGFYKYILDNWGEAFLVAEVGGEIVGYAMSRVEQTSDPVLLGMKDELEGDKSVIDKILDAIRNQLSEERPVGHLVSIAVRPGFRGRGIGSKLLSATVRVMKNVYRVDAIFLEVRVSNMPAIRLYEKFGFRKVRRIKGYYRDGEDAFVMVKRLLEGHHHHHH", "soluble on expression in E. coli": "soluble"},
      {"sequence": "MSLNRNAILSKRQKQFIERVAWGASYKEVADFFHVSWSTVDNTLRNAKTKLGLSKVTELGAWWFCTNYGISFDLSPIARQCTAGIILFLFSLGEVTTITDASYTMQIVRRTRTEYRIRRHETSIYQPYIINEGHHHHHH", "soluble on expression in E. coli": "not soluble"},
      {"sequence": "MSLNRPAPVEISYENMRFLITHNPTNATLNKFTEELKKYGVTTLVRVCDATYDKAPVEKEGIHVLDWPFDDGAPPPNQIVDDWLNLLKTKFREEPGCCVAVHCVAGLGRAPVLVALALIECGMKYEDAVQFIRQKRRGAFNSKQLLYLEKYRPKMRLRFRDTNGEGHHHHHH", "soluble on expression in E. coli": "soluble"},
      {"sequence": "MSLNSSQIQSVNVELFNVPLDEVLNDAKHGDHTHFELILCTITCTDGTQGVGYTYTGGKGGRAIYSLLNDELKPFLMGKDASCINHLWEEMQYHLHYVGRGGLVSFAISAVDIALWDIHCKVLNQPLWKVAGGCSDRVNCYAGGIDLNFSTEKLLGNIQGYLDCGFEAVKIKVGKEDYREDVARVAAVRNLIGPDAIFMVDANYSLTVNKAIKFAQAIEQYDITWFEEPTIPDDFAGFAHIASKINIPLAMGENLHTIYEFNQAISQAKLGFLQPDASNIGGITGWLTVAQMGYANNLPICSHGMHELHVSLMASQPNAGYLEVHSFPIDRYTTHPLKLENGKAVAPSTPGVGVEFKTELLLPYLVKHSEGHHHHHH", "soluble on expression in E. coli": "soluble"},
      {"sequence": "MSLNTGGNLLCVQLTVRRGPVREAKKPTPRIRNDGRYKIMQIGDLHLSTGVGACREAVPDSYNGGKCEADPRTLDFVNRVLDDEKPDLVVLSGDQVNGDTAPDAPTAMFKIVSLLIERKIPYAAIFGNHDDEKTMSREAQMAIMESLPFSLSTAGPADIDGVGNYYVEVLARGKTDHSALTIYLMDTHAYTPDERNFPGYDWVKPNQIEWFKKTAAGLKKNHNEYTGRHMDIAFIHIPLTEYADPALPRVGEWKEGVTAPVYNSGFRDALVEQGIVMVSAGHDHCNDYCSLSLAGEGETKIPALWMCYAGGSGFGGYAGYGGYHRRVRLFEVDTNEARIKTWKRLESGDTASRIDLQIIVDGGKPQPIAPVSEGHHHHHH", "soluble on expression in E. coli": "not soluble"},
      {"sequence": "MSLNTSLLILLVASFSSLVLSQNDSKKGGLPKKVHFSFGPAYLRNLTKEEKQQYYAIFGNKDLTIKQQEDQRLAFAEKHGFGQAIKDDIKLKAGNHELIRKERPEIIKNLLAAHEATMKIFDNKDQTLSQREAAVNALKKKYPHAPSTLYYISRLITGNGKHQTPFIKHH", "soluble on expression in E. coli": "not soluble"},
      {"sequence": "MSLNVFDATLKRLEYIFEEFDKVYFSFSGGKDSGLMVQLANLVAEKLDRNFDLLILNIEANYTATVDFIKKIEQLPRVKNIYHFCLPFFEDNNTSFFQPQWKMWDPSEKEKWIHSLPKNAITLENIDDGLKKYYSLSNGNPDRFLRYFQNWYKEQYPQSAISCGVGIRAQESLHRHSAVTKGENKYKNRCWINITLEGNILFYPLFDWKVGDIWAATFKCELEYNYIYEKMYKIGYKYRDMREGHHHHHH", "soluble on expression in E. coli": "soluble"},
      {"sequence": "MSLNYDWIKTRATFDEPKAAVIDPFKGTEWTYQDLNIRAENLANYLQEQGVQRGDVVGIFSPNDVALLDLLFASFKLGAVYLPINWRLKTQEIESVIADSDVKLIFYSAKHLSSLEGIADELIHMDIDSKTYDDIVDPTHHRPFTTVSVEGDDLASLMYTSGTTGLPKGVMFSYDSFVNNPINTALTYKVYASYTTIISTPMFHVLGFNDLTIPLLMAGGTLVLQRYFNGESLNDLMAQYQPNFLIQIPTMYYAMLVADNFDLKNFANIEFLIQGGAAPLPTVQKKFVSLGIPIITGYGLTEAPLVSVNTAANNERKPASIGQPVMFTDTRIFDDNFEEVQVGEIGELGVRGNNVTPGYWNKPEETAKAFSGEFFLTGDLAKIDEDGDVYIVDRRKEMIITGGENVLPSEVERVLSEHPLVAQGVVVGYDSPKYGESVSAAVVLTEDDPDFEQKLDAHMREHIAGYKIPRLYLKLTHIPLNSTSKPDKLEIQKYMNDKAQKQDQSKDEGHHHHHH", "soluble on expression in E. coli": "not soluble"},
      {"sequence": "MSLNYSDPVTFEILGVVANYGQEGCFMLAQLPPALQSLHLPLRLKLWDGNHFDLGPSPQVTILVKEPQLISQLTHPSMDQLGTAFVEGKLELEGDIGEAIRVCDELSEALLADEDETPPPRVSHDKTTDAKAISYHYDVSNAFYQLWLDQDMAYSCAYFREPDNTLDQAQQDKFDHLCRKLRLDAGDYLLDVGCGWGGLARFAAREYGAKVFGITLSKEQLKLGRKRVQAEGLADKVDLQILDYRDLPQDGRFDKVVSVGMFEHVGHANLALYCQKLFGAVREGGLVMNHGITAKHVDGRPVGRGAGEFIDRYVFPHGELPHLSMISASICEAGLEVVDVESLRLHYAKTLHHWSENLENQLHKAAALVPEKTLRIWRLYLAGCAYAFQKGWINLHQILAVKPYADGHHDLPWTREDLYREGHHHHHH", "soluble on expression in E. coli": "soluble"},
      {"sequence": "MSLPGSSNRPLPSSNDEFHYEDIELPSGYRSEGEVVDLLNPKDELEEPLFSEEPLFPVTTSIPTKTAVSKPKIAPTSAAKDVTFSSSIDSDDCSVAYDNSKPVRQYVLMIDAGSTGSRVHVYQFNNCNPSPKLEEEFFKMIEPGLSSFAGDPEGAAASLDPLLDYAMENVPEEYRRCSPIAVKATAGLRLTGESEAKAILKSVRQHLENDYPFPIVKDGVSILEGSMEGIYAWITINYLLGTLGGKATHSTVAVMDLGGASTQLVFEPRFASDGESLVDGDHKYVLDYNGEQYELYQHSHLGYGLKEARKLIHKFVLNNAEALKESLELLGDSTSIIHPCLHLNASLTHPDSKSEASEVVFVGPSLAHLSLQCRGIAEKALYKDKNCPVRPCSFNGVHQPKFTETFTDSPIYLISYFYDRMISLGMPSTFTIEDMKYLANSVCSGPTYWQDAFSLTDALKELKEEPEWCLDLNYMISLLSVGYEIPNNRQLHTAKKIDNKELGWCLGASLSMLSEQNNGWNCNVKEEIEGHHHHHH", "soluble on expression in E. coli": "not soluble"}
    ]}
  ]
}
